# Reference: patent US20130079278A1 (Novo Nordisk, published 2013)
# *1 amine or outer side, *2 acyl side, *3 side chain or, on linkers, in order; H or OH if unused. Where no end group is shown, it is not given here. Side-chain parts run from the residue outwards. The star is where a group is joined. C18 diacid = O=C(O)CCCCCCCCCCCCCCCCC(=O)*; C16 diacid = O=C(O)CCCCCCCCCCCCCCC(=O)*; γGlu = O=C(O)[C@H](CCC(=O)[*:2])N[*:1]; AEEA = NCCOCCOCC(=O)O
# B1: N^ε24-[(4S)-4-carboxy-4-[[(4S)-4-carboxy-4-[[(4S)-4-carboxy-4-[[(4S)-4-carboxy-4-(17-carboxyheptadecanoylamino)butanoyl]amino]butanoyl]amino]butanoyl]amino]buta … (peptide)
# peptide: HSQGTFTSDYSKYLDIRRAQDFVK([γGlu-γGlu-γGlu-γGlu-C18 diacid])WLLST-NH2
# modifications: N-terminus assumed
# SMILES: CC[C@H](C)[C@H](NC(=O)[C@H](CC(=O)O)NC(=O)[C@H](CC(C)C)NC(=O)[C@H](Cc1ccc(O)cc1)NC(=O)[C@H](CCCCN)NC(=O)[C@H](CO)NC(=O)[C@H](Cc1ccc(O)cc1)NC(=O)[C@H](CC(=O)O)NC(=O)[C@H](CO)NC(=O)[C@@H](NC(=O)[C@H](Cc1ccccc1)NC(=O)[C@@H](NC(=O)CNC(=O)[C@H](CCC(N)=O)NC(=O)[C@H](CO)NC(=O)[C@@H](N)Cc1c[nH]cn1)[C@@H](C)O)[C@@H](C)O)C(=O)N[C@@H](CCCNC(=N)N)C(=O)N[C@@H](CCCNC(=N)N)C(=O)N[C@@H](C)C(=O)N[C@@H](CCC(N)=O)C(=O)N[C@@H](CC(=O)O)C(=O)N[C@@H](Cc1ccccc1)C(=O)N[C@H](C(=O)N[C@@H](CCCCNC(=O)CC[C@H](NC(=O)CC[C@H](NC(=O)CC[C@H](NC(=O)CC[C@H](NC(=O)CCCCCCCCCCCCCCCCC(=O)O)C(=O)O)C(=O)O)C(=O)O)C(=O)O)C(=O)N[C@@H](Cc1c[nH]c2ccccc12)C(=O)N[C@@H](CC(C)C)C(=O)N[C@@H](CC(C)C)C(=O)N[C@@H](CO)C(=O)N[C@H](C(N)=O)[C@@H](C)O)C(C)C
# B2: N^ε24-[(4S)-4-carboxy-4-[[(4S)-4-carboxy-4-[[(4S)-4-carboxy-4-[[(4S)-4-carboxy-4-(17-carboxyheptadecanoylamino)butanoyl]amino]butanoyl]amino]butanoyl]amino]buta … (peptide)
# peptide: HSQGTFTSDYSKYLDVRRAQDFVK([γGlu-γGlu-γGlu-γGlu-C18 diacid])WLLST-NH2
# modifications: N-terminus assumed
# SMILES: CC(C)C[C@H](NC(=O)[C@H](Cc1c[nH]c2ccccc12)NC(=O)[C@H](CCCCNC(=O)CC[C@H](NC(=O)CC[C@H](NC(=O)CC[C@H](NC(=O)CC[C@H](NC(=O)CCCCCCCCCCCCCCCCC(=O)O)C(=O)O)C(=O)O)C(=O)O)C(=O)O)NC(=O)[C@@H](NC(=O)[C@H](Cc1ccccc1)NC(=O)[C@H](CC(=O)O)NC(=O)[C@H](CCC(N)=O)NC(=O)[C@H](C)NC(=O)[C@H](CCCNC(=N)N)NC(=O)[C@H](CCCNC(=N)N)NC(=O)[C@@H](NC(=O)[C@H](CC(=O)O)NC(=O)[C@H](CC(C)C)NC(=O)[C@H](Cc1ccc(O)cc1)NC(=O)[C@H](CCCCN)NC(=O)[C@H](CO)NC(=O)[C@H](Cc1ccc(O)cc1)NC(=O)[C@H](CC(=O)O)NC(=O)[C@H](CO)NC(=O)[C@@H](NC(=O)[C@H](Cc1ccccc1)NC(=O)[C@@H](NC(=O)CNC(=O)[C@H](CCC(N)=O)NC(=O)[C@H](CO)NC(=O)[C@@H](N)Cc1c[nH]cn1)[C@@H](C)O)[C@@H](C)O)C(C)C)C(C)C)C(=O)N[C@@H](CC(C)C)C(=O)N[C@@H](CO)C(=O)N[C@H](C(N)=O)[C@@H](C)O
# B3: N^ε24-[(4S)-4-carboxy-4-[[(4S)-4-carboxy-4-[[(4S)-4-carboxy-4-[[(4S)-4-carboxy-4-(17-carboxyheptadecanoylamino)butanoyl]amino]butanoyl]amino]butanoyl]amino]buta … (peptide)
# peptide: HSQGTFTSDYSKYLDLRRAQDFVK([γGlu-γGlu-γGlu-γGlu-C18 diacid])WLLST-NH2
# modifications: N-terminus assumed
# SMILES: CC(C)C[C@H](NC(=O)[C@H](CC(=O)O)NC(=O)[C@H](CC(C)C)NC(=O)[C@H](Cc1ccc(O)cc1)NC(=O)[C@H](CCCCN)NC(=O)[C@H](CO)NC(=O)[C@H](Cc1ccc(O)cc1)NC(=O)[C@H](CC(=O)O)NC(=O)[C@H](CO)NC(=O)[C@@H](NC(=O)[C@H](Cc1ccccc1)NC(=O)[C@@H](NC(=O)CNC(=O)[C@H](CCC(N)=O)NC(=O)[C@H](CO)NC(=O)[C@@H](N)Cc1c[nH]cn1)[C@@H](C)O)[C@@H](C)O)C(=O)N[C@@H](CCCNC(=N)N)C(=O)N[C@@H](CCCNC(=N)N)C(=O)N[C@@H](C)C(=O)N[C@@H](CCC(N)=O)C(=O)N[C@@H](CC(=O)O)C(=O)N[C@@H](Cc1ccccc1)C(=O)N[C@H](C(=O)N[C@@H](CCCCNC(=O)CC[C@H](NC(=O)CC[C@H](NC(=O)CC[C@H](NC(=O)CC[C@H](NC(=O)CCCCCCCCCCCCCCCCC(=O)O)C(=O)O)C(=O)O)C(=O)O)C(=O)O)C(=O)N[C@@H](Cc1c[nH]c2ccccc12)C(=O)N[C@@H](CC(C)C)C(=O)N[C@@H](CC(C)C)C(=O)N[C@@H](CO)C(=O)N[C@H](C(N)=O)[C@@H](C)O)C(C)C
# B4: N^ε24-[(4S)-4-carboxy-4-[[(4S)-4-carboxy-4-[[(4S)-4-carboxy-4-[[(4S)-4-carboxy-4-(17-carboxyheptadecanoylamino)butanoyl]amino]butanoyl]amino]butanoyl]amino]buta … (peptide)
# peptide: HSQGTFTSDYSKYLDVRRAQDFVK([γGlu-γGlu-γGlu-γGlu-C18 diacid])WLLST
# B5: N^ε24-[(4S)-4-carboxy-4-[[(4S)-4-carboxy-4-[[(4S)-4-carboxy-4-[[(4S)-4-carboxy-4-(17-carboxyheptadecanoylamino)butanoyl]amino]butanoyl]amino]butanoyl]amino]buta … (peptide)
# peptide: HSQGTFTSDYSKYLDIRRAQDFVK([γGlu-γGlu-γGlu-γGlu-C18 diacid])WLLST
# B6: N^ε24-[(4S)-4-carboxy-4-[[(4S)-4-carboxy-4-[[2-[2-[2-[[2-[2-[2-[[(4S)-4-carboxy-4-(17-carboxyheptadecanoylamino)butanoyl]amino]ethoxy]ethoxy]acetyl]amino]ethoxy … (peptide)
# peptide: HSQGTFTSDYSKYLDIRRAQDFVK([γGlu-γGlu-AEEA-AEEA-γGlu-C18 diacid])WLLNT
# B7: N^ε24-[(4S)-4-carboxy-4-[[(4S)-4-carboxy-4-[[(4S)-4-carboxy-4-[[(4S)-4-carboxy-4-(17-carboxyheptadecanoylamino)butanoyl]amino]butanoyl]amino]butanoyl]amino]buta … (peptide)
# peptide: HSQGTFTSDYSKYLDLRRAQDFVK([γGlu-γGlu-γGlu-γGlu-C18 diacid])WLLST
# B8: N^ε24-[(4S)-4-carboxy-4-[[(4S)-4-carboxy-4-[[2-[2-[2-[[2-[2-[2-[[(4S)-4-carboxy-4-(15-carboxypentadecanoylamino)butanoyl]amino]ethoxy]ethoxy]acetyl]amino]ethoxy … (peptide)
# peptide: HSQGTFTSDYSKYLDTRRAQDFVK([γGlu-γGlu-AEEA-AEEA-γGlu-C16 diacid])WLLST
# B9: N^ε24-[(4S)-4-carboxy-4-[[(4S)-4-carboxy-4-[[2-[2-[2-[[2-[2-[2-[[(4S)-4-carboxy-4-(15-carboxypentadecanoylamino)butanoyl]amino]ethoxy]ethoxy]acetyl]amino]ethoxy … (peptide)
# peptide: HSQGTFTSDYSRYLDTRRAQDFVK([γGlu-γGlu-AEEA-AEEA-γGlu-C16 diacid])WLLST
# B10: N^ε24-[(4S)-4-carboxy-4-[[(4S)-4-carboxy-4-[[2-[2-[2-[[2-[2-[2-[[(4S)-4-carboxy-4-(15-carboxypentadecanoylamino)butanoyl]amino]ethoxy]ethoxy]acetyl]amino]ethoxy … (peptide)
# peptide: HSQGTFTSDYSKYLDARRAQDFVK([γGlu-γGlu-AEEA-AEEA-γGlu-C16 diacid])WLLST
# B11: N^ε24-[(4S)-4-carboxy-4-[[(4S)-4-carboxy-4-[[2-[2-[2-[[2-[2-[2-[[(4S)-4-carboxy-4-(15-carboxypentadecanoylamino)butanoyl]amino]ethoxy]ethoxy]acetyl]amino]ethoxy … (peptide)
# peptide: HSQGTFTSDYSRYLDARRAQDFVK([γGlu-γGlu-AEEA-AEEA-γGlu-C16 diacid])WLLST
# B12: N^ε24-[(4S)-4-carboxy-4-[[(4S)-4-carboxy-4-[[2-[2-[2-[[2-[2-[2-[[(4S)-4-carboxy-4-(15-carboxypentadecanoylamino)butanoyl]amino]ethoxy]ethoxy]acetyl]amino]ethoxy … (peptide)
# peptide: HSQGTFTSDYSKYLDLRRAQDFVK([γGlu-γGlu-AEEA-AEEA-γGlu-C16 diacid])WLLST
# B13: N^ε24-[(4S)-4-carboxy-4-[[(4S)-4-carboxy-4-[[(4S)-4-carboxy-4-[[(4S)-4-carboxy-4-(17-carboxyheptadecanoylamino)butanoyl]amino]butanoyl]amino]butanoyl]amino]buta … (peptide)
# peptide: HSQGTFTSDYSRYLDLRRAQDFVK([γGlu-γGlu-γGlu-γGlu-C18 diacid])WLLST
# B14: N^ε24-[(4S)-4-carboxy-4-[[(4S)-4-carboxy-4-[[2-[2-[2-[[2-[2-[2-[[(4S)-4-carboxy-4-(17-carboxyheptadecanoylamino)butanoyl]amino]ethoxy]ethoxy]acetyl]amino]ethoxy … (peptide)
# peptide: HSQGTFTSDYSRYLDLRRAQDFVK([γGlu-γGlu-AEEA-AEEA-γGlu-C18 diacid])WLLAT
# B15: N^ε24-[(4S)-4-carboxy-4-[[(4S)-4-carboxy-4-[[2-[2-[2-[[2-[2-[2-[[(4S)-4-carboxy-4-(17-carboxyheptadecanoylamino)butanoyl]amino]ethoxy]ethoxy]acetyl]amino]ethoxy … (peptide)
# peptide: HSQGTFTSDYSRYLDLRRAQDFVK([γGlu-γGlu-AEEA-AEEA-γGlu-C18 diacid])WLLGT
# B16: N^ε24-[(4S)-4-carboxy-4-[[(4S)-4-carboxy-4-[[2-[2-[2-[[2-[2-[2-[[(4S)-4-carboxy-4-(15-carboxypentadecanoylamino)butanoyl]amino]ethoxy]ethoxy]acetyl]amino]ethoxy … (peptide)
# peptide: HSQGTFTSDYSRYLDLRRAQDFVK([γGlu-γGlu-AEEA-AEEA-γGlu-C16 diacid])WLLAT
# B17: N^ε24-[(4S)-4-carboxy-4-[[(4S)-4-carboxy-4-[[2-[2-[2-[[2-[2-[2-[[(4S)-4-carboxy-4-(17-carboxyheptadecanoylamino)butanoyl]amino]ethoxy]ethoxy]acetyl]amino]ethoxy … (peptide)
# peptide: HSHGTFTSDYSKYLETRRAQDFVK([γGlu-γGlu-AEEA-AEEA-γGlu-C18 diacid])WLLNT
# B18: N^ε24-[(4S)-4-carboxy-4-[[(4S)-4-carboxy-4-[[2-[2-[2-[[2-[2-[2-[[(4S)-4-carboxy-4-(15-carboxypentadecanoylamino)butanoyl]amino]ethoxy]ethoxy]acetyl]amino]ethoxy … (peptide)
# peptide: HSQGTFTSDYSRYLDLRRAQDFVK([γGlu-γGlu-AEEA-AEEA-γGlu-C16 diacid])WLLGT
# B19: N^ε24-[(4S)-4-carboxy-4-[[(4S)-4-carboxy-4-[[(4S)-4-carboxy-4-(15-carboxypentadecanoylamino)butanoyl]amino]butanoyl]amino]butanoyl]-[Arg12,Leu16,Lys24,Leu27,Ser … (peptide)
# peptide: HSQGTFTSDYSRYLDLRRAQDFVK([γGlu-γGlu-γGlu-C16 diacid])WLLST
# B20: N^ε24-[(4S)-4-carboxy-4-[[(4S)-4-carboxy-4-[[(4S)-4-carboxy-4-(17-carboxyheptadecanoylamino)butanoyl]amino]butanoyl]amino]butanoyl]-[Arg12,Ala16,Lys24,Leu27,Ser … (peptide)
# peptide: HSQGTFTSDYSRYLDARRAQDFVK([γGlu-γGlu-γGlu-C18 diacid])WLLST
# B21: N^ε24-[(4S)-4-carboxy-4-[[(4S)-4-carboxy-4-[[2-[2-[2-[[2-[2-[2-[[(4S)-4-carboxy-4-(15-carboxypentadecanoylamino)butanoyl]amino]ethoxy]ethoxy]acetyl]amino]ethoxy … (peptide)
# peptide: HSQGTFTSDYSKYLDERRAQDFVK([γGlu-γGlu-AEEA-AEEA-γGlu-C16 diacid])WLLST
# B22: N^ε24-[(4S)-4-carboxy-4-[[(4S)-4-carboxy-4-[[2-[2-[2-[[2-[2-[2-[[(4S)-4-carboxy-4-(15-carboxypentadecanoylamino)butanoyl]amino]ethoxy]ethoxy]acetyl]amino]ethoxy … (peptide)
# peptide: HSQGTFTSDYSRYLDERRAQDFVK([γGlu-γGlu-AEEA-AEEA-γGlu-C16 diacid])WLLST
# B23: N^ε24-[(4S)-4-carboxy-4-[[(4S)-4-carboxy-4-[[2-[2-[2-[[2-[2-[2-[[(4S)-4-carboxy-4-(15-carboxypentadecanoylamino)butanoyl]amino]ethoxy]ethoxy]acetyl]amino]ethoxy … (peptide)
# peptide: HSQGTFTSDYSKYLDVRRAQDFVK([γGlu-γGlu-AEEA-AEEA-γGlu-C16 diacid])WLLST
# B24: N^ε24-[(4S)-4-carboxy-4-[[(4S)-4-carboxy-4-[[(4S)-4-carboxy-4-[[(4S)-4-carboxy-4-(17-carboxyheptadecanoylamino)butanoyl]amino]butanoyl]amino]butanoyl]amino]buta … (peptide)
# peptide: HSQGTFTSDYSRYLDARRAQDFVK([γGlu-γGlu-γGlu-γGlu-C18 diacid])WLLST
# B25: N^ε24-[(4S)-4-carboxy-4-[[(4S)-4-carboxy-4-[[2-[2-[2-[[2-[2-[2-[[(4S)-4-carboxy-4-(15-carboxypentadecanoylamino)butanoyl]amino]ethoxy]ethoxy]acetyl]amino]ethoxy … (peptide)
# peptide: HSQGTFTSDYSRYLDVRRAQDFVK([γGlu-γGlu-AEEA-AEEA-γGlu-C16 diacid])WLLST
# Biological target: glucagon receptor (human, UniProt P47871 26-477)
# Sequence (P47871 26-477): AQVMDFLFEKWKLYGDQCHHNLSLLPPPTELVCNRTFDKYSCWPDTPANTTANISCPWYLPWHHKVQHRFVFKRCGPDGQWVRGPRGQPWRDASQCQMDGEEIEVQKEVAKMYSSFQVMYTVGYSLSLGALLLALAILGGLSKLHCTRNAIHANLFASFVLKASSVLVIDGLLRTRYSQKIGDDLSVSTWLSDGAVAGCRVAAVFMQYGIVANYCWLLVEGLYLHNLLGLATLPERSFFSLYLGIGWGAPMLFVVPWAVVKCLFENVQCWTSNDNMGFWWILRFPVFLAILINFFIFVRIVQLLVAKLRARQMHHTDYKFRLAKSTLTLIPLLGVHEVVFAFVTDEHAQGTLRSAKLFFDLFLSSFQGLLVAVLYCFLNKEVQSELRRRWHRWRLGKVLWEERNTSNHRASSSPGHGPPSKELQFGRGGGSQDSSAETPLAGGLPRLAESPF
# Assay: cell-based or functional assay
binder,measurement,value
B1,Assay (I) Glucagon [EC50],0.402 nM
B2,Assay (I) Glucagon [EC50],0.268 nM
B3,Assay (I) Glucagon [EC50],0.812 nM
B4,Assay (I) Glucagon [EC50],0.134 nM
B5,Assay (I) Glucagon [EC50],0.189 nM
B6,Assay (I) Glucagon [EC50],0.081 nM
B7,Assay (I) Glucagon [EC50],0.126 nM
B8,Assay (I) Glucagon [EC50],0.017 nM
B9,Assay (I) Glucagon [EC50],0.025 nM
B10,Assay (I) Glucagon [EC50],0.016 nM
B11,Assay (I) Glucagon [EC50],0.022 nM
B12,Assay (I) Glucagon [EC50],0.039 nM
B13,Assay (I) Glucagon [EC50],0.343 nM
B14,Assay (I) Glucagon [EC50],0.253 nM
B15,Assay (I) Glucagon [EC50],0.47 nM
B16,Assay (I) Glucagon [EC50],0.064 nM
B17,Assay (I) Glucagon [EC50],0.036 nM
B18,Assay (I) Glucagon [EC50],0.09 nM
B19,Assay (I) Glucagon [EC50],0.027 nM
B20,Assay (I) Glucagon [EC50],0.066 nM
B21,Assay (I) Glucagon [EC50],0.017 nM
B22,Assay (I) Glucagon [EC50],0.029 nM
B23,Assay (I) Glucagon [EC50],0.009 nM
B24,Assay (I) Glucagon [EC50],0.062 nM
B25,Assay (I) Glucagon [EC50],0.026 nM
